{"source": "patent US20260167699A1", "about": "(Chugai, published 2026)", "data": [{"molecular_target": "T1, FcγRIIIa (human, UniProt P08637 17-208)", "T1 construct": "extracellular domain; also called 3a; FcγRIIIa extracellular domain", "T1 sequence (P08637 other isoform, or with tags, fused parts or gaps)": "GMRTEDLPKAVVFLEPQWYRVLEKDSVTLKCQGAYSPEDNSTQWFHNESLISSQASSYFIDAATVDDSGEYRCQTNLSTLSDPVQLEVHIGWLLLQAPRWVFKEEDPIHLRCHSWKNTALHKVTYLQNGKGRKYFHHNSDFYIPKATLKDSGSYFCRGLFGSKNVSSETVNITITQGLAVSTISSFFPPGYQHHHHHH", "assay": "SPR (Biacore);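 note: antibody variants captured on an SPR sensor chip, with FcγRIIIa passed over as analyte in HBS-EP+ buffer at 25 °C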", "values": [{"binder": "GpH7-A5/GpH7-B3 variant S239_07I/GpL16-k0 (antibody, human IgG1, kappa, copies: 1 + 1 + 2) heavy 1: not shown heavy 2: not shown light: DIVMTQSPLSLPVTPGEPASISCQASESLVHSNRNTYLHWYLQKPGQSPQLLIYKVSNRFSGVPDRFSGSGSGTDFTLKISRVEAEDVGVYYCSQNTHVPPTFGQGTKVEIERTVAAPSVFIFPPSDEQLKSGTASVVCLLNNFYPREAKVQWKVDNALQSGNSQESVTEQDSKDSTYSLSSTLTLSKADYEKHKVYACEVTHQGLSSPVTKSFNRGEC", "He/Con 3a": "75 % of GpH7-A5/GpH7-B3/GpL16-k0"}, {"binder": "GpH7-A5/GpH7-B3 variant S239_06M/GpL16-k0 (antibody, human IgG1, kappa, copies: 1 + 1 + 2) heavy 1: not shown heavy 2: not shown light: DIVMTQSPLSLPVTPGEPASISCQASESLVHSNRNTYLHWYLQKPGQSPQLLIYKVSNRFSGVPDRFSGSGSGTDFTLKISRVEAEDVGVYYCSQNTHVPPTFGQGTKVEIERTVAAPSVFIFPPSDEQLKSGTASVVCLLNNFYPREAKVQWKVDNALQSGNSQESVTEQDSKDSTYSLSSTLTLSKADYEKHKVYACEVTHQGLSSPVTKSFNRGEC", "He/Con 3a": "73.9 % of GpH7-A5/GpH7-B3/GpL16-k0"}, {"binder": "GpH7-A5/GpH7-B3 variant Q295_12R/GpL16-k0 (antibody, human IgG1, kappa, copies: 1 + 1 + 2) heavy 1: not shown heavy 2: not shown light: DIVMTQSPLSLPVTPGEPASISCQASESLVHSNRNTYLHWYLQKPGQSPQLLIYKVSNRFSGVPDRFSGSGSGTDFTLKISRVEAEDVGVYYCSQNTHVPPTFGQGTKVEIERTVAAPSVFIFPPSDEQLKSGTASVVCLLNNFYPREAKVQWKVDNALQSGNSQESVTEQDSKDSTYSLSSTLTLSKADYEKHKVYACEVTHQGLSSPVTKSFNRGEC", "He/Con 3a": "73.2 % of GpH7-A5/GpH7-B3/GpL16-k0"}, {"binder": "GpH7-A5/GpH7-B3 variant Q295_04F/GpL16-k0 (antibody, human IgG1, kappa, copies: 1 + 1 + 2) heavy 1: not shown heavy 2: not shown light: DIVMTQSPLSLPVTPGEPASISCQASESLVHSNRNTYLHWYLQKPGQSPQLLIYKVSNRFSGVPDRFSGSGSGTDFTLKISRVEAEDVGVYYCSQNTHVPPTFGQGTKVEIERTVAAPSVFIFPPSDEQLKSGTASVVCLLNNFYPREAKVQWKVDNALQSGNSQESVTEQDSKDSTYSLSSTLTLSKADYEKHKVYACEVTHQGLSSPVTKSFNRGEC", "He/Con 3a": "75.1 % of GpH7-A5/GpH7-B3/GpL16-k0"}, {"binder": "GpH7-A5/GpH7-B3 variant Q295_07I/GpL16-k0 (antibody, human IgG1, kappa, copies: 1 + 1 + 2) heavy 1: not shown heavy 2: not shown light: DIVMTQSPLSLPVTPGEPASISCQASESLVHSNRNTYLHWYLQKPGQSPQLLIYKVSNRFSGVPDRFSGSGSGTDFTLKISRVEAEDVGVYYCSQNTHVPPTFGQGTKVEIERTVAAPSVFIFPPSDEQLKSGTASVVCLLNNFYPREAKVQWKVDNALQSGNSQESVTEQDSKDSTYSLSSTLTLSKADYEKHKVYACEVTHQGLSSPVTKSFNRGEC", "He/Con 3a": "101 % of GpH7-A5/GpH7-B3/GpL16-k0"}, {"binder": "GpH7-A5/GpH7-B3 variant Q295_16H/GpL16-k0 (antibody, human IgG1, kappa, copies: 1 + 1 + 2) heavy 1: not shown heavy 2: not shown light: DIVMTQSPLSLPVTPGEPASISCQASESLVHSNRNTYLHWYLQKPGQSPQLLIYKVSNRFSGVPDRFSGSGSGTDFTLKISRVEAEDVGVYYCSQNTHVPPTFGQGTKVEIERTVAAPSVFIFPPSDEQLKSGTASVVCLLNNFYPREAKVQWKVDNALQSGNSQESVTEQDSKDSTYSLSSTLTLSKADYEKHKVYACEVTHQGLSSPVTKSFNRGEC", "He/Con 3a": "80.2 % of GpH7-A5/GpH7-B3/GpL16-k0"}, {"binder": "GpH7-A5/GpH7-B3 variant Q295_18N/GpL16-k0 (antibody, human IgG1, kappa, copies: 1 + 1 + 2) heavy 1: not shown heavy 2: not shown light: DIVMTQSPLSLPVTPGEPASISCQASESLVHSNRNTYLHWYLQKPGQSPQLLIYKVSNRFSGVPDRFSGSGSGTDFTLKISRVEAEDVGVYYCSQNTHVPPTFGQGTKVEIERTVAAPSVFIFPPSDEQLKSGTASVVCLLNNFYPREAKVQWKVDNALQSGNSQESVTEQDSKDSTYSLSSTLTLSKADYEKHKVYACEVTHQGLSSPVTKSFNRGEC", "He/Con 3a": "85.7 % of GpH7-A5/GpH7-B3/GpL16-k0"}, {"binder": "GpH7-A5/GpH7-B3 variant Q295_08L/GpL16-k0 (antibody, human IgG1, kappa, copies: 1 + 1 + 2) heavy 1: not shown heavy 2: not shown light: DIVMTQSPLSLPVTPGEPASISCQASESLVHSNRNTYLHWYLQKPGQSPQLLIYKVSNRFSGVPDRFSGSGSGTDFTLKISRVEAEDVGVYYCSQNTHVPPTFGQGTKVEIERTVAAPSVFIFPPSDEQLKSGTASVVCLLNNFYPREAKVQWKVDNALQSGNSQESVTEQDSKDSTYSLSSTLTLSKADYEKHKVYACEVTHQGLSSPVTKSFNRGEC", "He/Con 3a": "120 % of GpH7-A5/GpH7-B3/GpL16-k0"}, {"binder": "GpH7-A5/GpH7-B3 variant S239_09D/GpL16-k0 (antibody, human IgG1, kappa, copies: 1 + 1 + 2) heavy 1: not shown heavy 2: not shown light: DIVMTQSPLSLPVTPGEPASISCQASESLVHSNRNTYLHWYLQKPGQSPQLLIYKVSNRFSGVPDRFSGSGSGTDFTLKISRVEAEDVGVYYCSQNTHVPPTFGQGTKVEIERTVAAPSVFIFPPSDEQLKSGTASVVCLLNNFYPREAKVQWKVDNALQSGNSQESVTEQDSKDSTYSLSSTLTLSKADYEKHKVYACEVTHQGLSSPVTKSFNRGEC", "He/Con 3a": "156 % of GpH7-A5/GpH7-B3/GpL16-k0"}, {"binder": "GpH7-A5/GpH7-B3 variant Q295_06M/GpL16-k0 (antibody, human IgG1, kappa, copies: 1 + 1 + 2) heavy 1: not shown heavy 2: not shown light: DIVMTQSPLSLPVTPGEPASISCQASESLVHSNRNTYLHWYLQKPGQSPQLLIYKVSNRFSGVPDRFSGSGSGTDFTLKISRVEAEDVGVYYCSQNTHVPPTFGQGTKVEIERTVAAPSVFIFPPSDEQLKSGTASVVCLLNNFYPREAKVQWKVDNALQSGNSQESVTEQDSKDSTYSLSSTLTLSKADYEKHKVYACEVTHQGLSSPVTKSFNRGEC", "He/Con 3a": "100 % of GpH7-A5/GpH7-B3/GpL16-k0"}, {"binder": "GpH7-A5/GpH7-B3 variant Q295_05P/GpL16-k0 (antibody, human IgG1, kappa, copies: 1 + 1 + 2) heavy 1: not shown heavy 2: not shown light: DIVMTQSPLSLPVTPGEPASISCQASESLVHSNRNTYLHWYLQKPGQSPQLLIYKVSNRFSGVPDRFSGSGSGTDFTLKISRVEAEDVGVYYCSQNTHVPPTFGQGTKVEIERTVAAPSVFIFPPSDEQLKSGTASVVCLLNNFYPREAKVQWKVDNALQSGNSQESVTEQDSKDSTYSLSSTLTLSKADYEKHKVYACEVTHQGLSSPVTKSFNRGEC", "He/Con 3a": "74.4 % of GpH7-A5/GpH7-B3/GpL16-k0"}, {"binder": "GpH7-A5/GpH7-B3 variant S239_10E/GpL16-k0 (antibody, human IgG1, kappa, copies: 1 + 1 + 2) heavy 1: not shown heavy 2: not shown light: DIVMTQSPLSLPVTPGEPASISCQASESLVHSNRNTYLHWYLQKPGQSPQLLIYKVSNRFSGVPDRFSGSGSGTDFTLKISRVEAEDVGVYYCSQNTHVPPTFGQGTKVEIERTVAAPSVFIFPPSDEQLKSGTASVVCLLNNFYPREAKVQWKVDNALQSGNSQESVTEQDSKDSTYSLSSTLTLSKADYEKHKVYACEVTHQGLSSPVTKSFNRGEC", "He/Con 3a": "171 % of GpH7-A5/GpH7-B3/GpL16-k0"}]}]}
